According to US20250042994A1 (HAINAN SIMCERE ZAIMING PHARMACEUTICAL, published 2025):
Blank lines part the entries; values can stand above or below the binder they belong to.

Key:
[1] = biological target: T1, human CD19 exon1-3-His tag protein (human, UniProt P15391 20-186, limits assumed); test: ELISA on coated human CD19 exon 1-3-His
T1 construct: membrane-distal part of the extracellular region, made in HEK293E cells; not shown: His tag
T1 sequence (looked up): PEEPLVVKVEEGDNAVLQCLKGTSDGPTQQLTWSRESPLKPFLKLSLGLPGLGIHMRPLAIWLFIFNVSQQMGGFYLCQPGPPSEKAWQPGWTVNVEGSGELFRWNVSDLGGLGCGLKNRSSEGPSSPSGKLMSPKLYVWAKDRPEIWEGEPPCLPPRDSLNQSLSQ

[2] = biological target: T2, Human CD19-his protein (human, UniProt P15391 20-291); test: SPR Biacore, Ab captured on Protein A, CD19-His analyte
T2 construct: bought protein; also called recombinant human CD19-His; CD19 full-length protein; not shown: His tag
T2 sequence (looked up): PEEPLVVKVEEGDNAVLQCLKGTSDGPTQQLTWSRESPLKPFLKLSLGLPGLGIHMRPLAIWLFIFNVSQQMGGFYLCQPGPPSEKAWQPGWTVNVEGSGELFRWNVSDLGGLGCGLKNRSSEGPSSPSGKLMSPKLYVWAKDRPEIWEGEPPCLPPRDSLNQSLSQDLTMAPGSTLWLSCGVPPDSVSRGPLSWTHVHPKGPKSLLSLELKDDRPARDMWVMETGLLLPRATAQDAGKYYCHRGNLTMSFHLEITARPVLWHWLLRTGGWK
How it was run: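 Apparent KD came from a Langmuir 1:1 fit of double-referenced sensorgrams. Recombinant human CD19-His analyte (top 200 nM, 1:1 serial dilution, 5 concentrations) flowed over Protein A-captured antibody for 240 s at 30 μl/min, then buffer for up to 600 s. Running buffer HBS-EP+ at 25 °C; regeneration with 10 mM glycine pH 1.5.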

binding result [1]: no binding (tested: 100 nM)
Kd [2]: 0.362 nM
koff [2]: 0.000171 s⁻¹
kon [2]: 472000 M⁻¹ s⁻¹
B1: F4.18.13 (antibody, human IgG1, V domains shown)
VH: QVQLQQSGPELVKPGASVKISCKASGYAFSSFWMNWVKQRPGEGLEWIGRIYPGDGDTNYNGKFKGKATLTADDSSSTAYMQLSSLTSVDSAVYFCAREVIAAVVTTDFDYWGQGTTLTVSS
VL: DIQMTQTTSSLSASLGDRVTISCRTSQDISNYLNWYLQKPDGTVKLLIYYTSGLHSGVPSRFSGSGSGTDYSLTISNLEPEDIATYFCQQGKTLPYTFGGGTKLEIK
notes: human-murine chimeric antibody, human IgG1 constant

binding result [1]: no binding (tested: 100 nM)
Kd [2]: 2.72 nM
koff [2]: 0.000949 s⁻¹
kon [2]: 348000 M⁻¹ s⁻¹
B2: F4.15.9 (antibody, human IgG1, V domains shown)
VH: QVQLQQSGPELVKPGASVKISCKASGYAFSSSWMNWLKQRPGQGLEWIGRIYPGDGDTNYNGKFKGKATLTADESSSTAYMQLSSLTSVDSAVYFCARGITTIITIAWFASWGQGTLVTVSA
VL: QIVLSQSPTILSASPGEKVTMTCRASSSVSYMHWYQQKPGSSPKPWIYATSNLASGVPPRFSGSGSGTSYSLTISRVGAEDAATYYCQQWSSDPWTFGGGTKLEIK
notes: as for B1

binding result [1]: no binding (tested: 100 nM)
Kd [2]: 0.904 nM
koff [2]: 0.000167 s⁻¹
kon [2]: 185000 M⁻¹ s⁻¹
B3: F4.21.2 (antibody, human IgG1, V domains shown)
VH: QVQLKQSGPGLVQPSQSLSITCTVSGFSLSTYGVHWVRQSPGRGLEWLGVIWIGGTTDYNAAFISRLTISKDNSRGQVFFKMDSLQANDTAIYYCARKGYYKYDGGYYYAMDYWGQGTSVTVSS
VL: DIQMTQSSSYLSVSLGGRVTITCKASDHINNWLAWYQQKPGNAPWLLISGATSLETGVPSRFSGSGSGKDYTLSISSLQTEDVATYYCQQYWSTPLTFGAGTKLELK
notes: as for B1

binding result [1]: no binding (tested: 100 nM)
Kd [2]: 3.45 nM
koff [2]: 0.000452 s⁻¹
kon [2]: 131000 M⁻¹ s⁻¹
B4: F4.33.12 (antibody, human IgG1, V domains shown)
VH: QVQLQQSGAELVRPGSSVKISCKGSGYAFSSYWMNWVKQRPGQGLEWIGQIYPGDGDTNYNGKFKGKATLTADKSSSTAYMQLSSLTSEDSAVYFCARAGFYYGSDSSMDYWGQGTSVTVSS
VL: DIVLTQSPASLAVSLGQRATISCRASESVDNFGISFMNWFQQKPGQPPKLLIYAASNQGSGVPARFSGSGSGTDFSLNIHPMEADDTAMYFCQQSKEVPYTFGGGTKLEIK
notes: as for B1

binding result [1]: no binding (tested: 100 nM)
Kd [2]: 0.974 nM
koff [2]: 8.84e-05 s⁻¹
kon [2]: 90800 M⁻¹ s⁻¹
B5: F3.133.14 (antibody, human IgG1, V domains shown)
VH: QVQLQQPGAELVMPGASVKLSCKASGYTFTNYWMHWVKQRPGQGLEWIGEIDPSDYYANYNQKFKGKATLTVDKSSSTAYMQLSSLTSEDSAVYYCARSHYYANSYNYWGQGTTLTVSS
VL: EIELTQSPTTMAASPGEKITITCSASSSISSDYLHWYQQKPGFSPKLLIYRTSNLASGLPARFSGSGSGTSYSLTIGTMEAEDVATYYCQQGSSVPRMLTFGAGTKLELK
notes: as for B1

binding result [1]: no binding (tested: 100 nM)
Kd [2]: 5.94 nM
koff [2]: 0.00147 s⁻¹
kon [2]: 248000 M⁻¹ s⁻¹
B6: F4.22.6 (antibody, human IgG1, V domains shown)
VH: QVQLQQSGPELVKPGASVKISCKASGYAFSSFWMNWVKQRPGQGLEWIGRIYPGDGDTNYNGKFKGKATLTADKSSTTAYMHLSSLTSVDSAVYFCTRSVITAVVDWYFDVWGAGTTVTVSS
VL: QIVLSQSPAILSASPGEKVTLTCRASSSVNFMHWYQQKPGSSPKPWIYATSNLASGAPARFSGSGSGTSYSLTISRVEAEDAAAYYCQQWSSYPIFTFGSGTKLEIK
notes: as for B1

binding result [1]: no binding (tested: 100 nM)
Kd [2]: 15.3 nM
koff [2]: 0.00351 s⁻¹
kon [2]: 229000 M⁻¹ s⁻¹
B7: F4.35.5 (antibody, human IgG1, V domains shown)
VH: EIQLQQSGPELVKPGASVKVSCKASGYAFTSYNMYWVKQSHGKSLEWIGYIDPYNGDTRYNQKFKGKATLTVDKSSSTAYMHLNSLTSEDSAVYYCTRSGTGRDYWGQGTTLTVSS
VL: QIVLTQSPAIMSASPGEKVTMTCSASSSISYMFWFQQKPGSSPRLLIYDTSSLASGVPVRFSGSGSGTSYTLTISRMEAEDAATYYCQQWSNYPYTFGGGTKLEMK
notes: as for B1
